Assay results published in the DeepSol protein solubility set.

assay: soluble on expression in E. coli; label from the status in PepcDB or PDB records

Q: With “AQQAEWRSWEVNKRLEYSLVKGITEFIEQDTEEARQQATRPCEVIEGPLMDGMNVVGDLFGEGKMFLPQVVKSARVMKQAVAYLEPFIEASKEQCKTNGKMVIATVKGDVHDIGKNIVGVVLQCNNYEIVDLGVMVPAEKILRTAKEVNADLIGLSGLITPSLDEMVNVAKEMERQGFTIPLLIGGATTSKAHTAVKIEQNYSGPTVYVQNASRTVGVVAALLSDTQRDDFVARTRKEYETVRIQHGRKKPRTPPVTLEAARDNDFAFDWQAYTPPVAHRLGVQEVEASIETLRNYIDWTPFFMTWSLAGKYPRILEDEVVGVEAQRLFKDANDMLDKLSAEKTLNPRGVVGLFPANRVGDDIEIYRDETRTHVINVSHHLRQQTEKTGFANYCLADFVAPKLSGKADYIGAFAVTGGLEEDALADAFEAQHDDYNKIMVKALADRLAEAFAEYLHERVRKVYWGYAPNENLSNEELIRENYQGIRPAPGYPACPEHTEKATIWELLEVEKHTGMKLTESFAMWPGASVSGWYFSHPDSKYYAVAQIQRDQVEDYARRKGMSVTEVERWLAPNLGYDAD” as the sequence, how does the “soluble on expression in E. coli” value read?
A: The value was “soluble”.

Q: With “MHFYKYGVLIDQLRDSFEWRVAFLDGSVSDHCCITVPSEKFNFPPTPGATVKAKFEHANSFLPSLVAQCGSFEWFRDVTVVNSKVVIFAIVHFSNECLERDPFKINGMDYSIIENENTDFQKIVLPTRVLQTSITSRSNLQNTDTPFIYRIGVCWEPISFENGVTVNWRYYADFPITPIFELYYRETTLPYIAESMVYGVLEGVVIAENDHGALFWTPKMGCAILPSTSLDTPMPSLGSVHVILVKRCIPENSFGFSCSYELLSSFRSTEWPNLKVITDQITRKVYIEANASCRSMMENQDFPSMNVPHIGKVFRGLQQYRDKLSAGHLYDFRMEFQKEEGSFVPTIVDLCLEEDEMVDCRVVYISNETSTYFAVLDPSSNSFDRFKQSIDYIAIPFRVLFCANGVHVKNEELLLNSYKVRVRVPRNRHDVVNAIHVEHVIQSPKDPAYFITNGSVWLRTTVKFQNASRYELLCPLLEQKIIDVNGVTAAMSLTQEFTVHAQFVLMERNVPVFVVRQLASTVREHPRTTNYPSRSLNLSYEVSGALARTNPNGQLSAADNNIVLINDSISLDHNLPDTGEYPTILNESSFERQLLFDNQSIADSASTSGDFILTESVYESSSAASTCTVIDRNDARFSALNDDSNILISESWLDSTNQHSETTMDTPEIITESFYESTHDQASSRASTVDRLASDVDKISIGRPDYSPPPRRRIFGYSTPGDRVRPRNSYGSSSSGSLNGRPKRRAPYGFRQIRNITPHNVLLRDIIYNNINNRKMFVEQNKNAILKCWNRLPLAQVTRTKKIFCTVIAVESIKFPPSFDDTCIKGLVRFAVVYDDMNVKNTSVVVPIGGNFNNLPKSFQLGDAYKVFHFSSYKDLICRIGGFSHGLNGELSRVAPVNCISNPETVNGRYGQRYLRCTVNAARPAISEIESDVFELWTVHGLPGFIIVEKVPLLMNHLNKEPINPDVHHQHMYTCIIEPLAGGPVEASILKDVKEGEDICIFWRLVVEFSDTVPLPRLKEKTDKVVPQIRTEPVQSGTFSVDDYGCWETLRINSILAQEKLDRMRAVGDPRVKMIDGPDLRPEIEVRKVDVNTRREKMFAAFDALLEKLPQLHSEGILGYVLEDDLRVKIKKLTPMNDNNHKFTFTFRNGSLEIGVNYLTDMLTRGKIYKVMNEMKKHVPLLKVLSDCIGLNTTYIKKTDAVKMMLHYMYRNELHTYL” as the sequence, how does the “soluble on expression in E. coli” value read?
A: Its value is “not soluble”.

Q: For “MNEKHPGPLVVSGKLSDGERMKSESNFLRGTIAEDLNNGLTGGFSGDNFLLIRFHGMYQQDDRDIRAERAEQKLEPRHAMMLRCRLPGGIITPQQWLGIDKFAADNTLYGSIRITNRQTFQFHGILKGNVKPAHQLLNELGLDALATANDVNRNVLCTSNPVESALHQEAYEWAKKISEHLLPRTRAYAEIWLDAEKVATTDEEPILGATYLPRKFKTTVVIPPQNDVDLHANDLNFVAVADKGKLIGFNVLVGGGLSIAHGDKNTYPRKASEFGYIPLKHTLAIAEAVVTTQRDWGNRTDRKNAKTKYTLERVGVETFKAEVEKRAGVSFSAIKPYQFIGRGDRIGWVKGVDKKWHLTLFVENGRLLDYPGRSLKTGVAEIAKIHQGDFRLTANQNLIVAGVPEKDKARIEALAREHGLMDDNVTSQRENSMACVSFPTCPLAMAEAERFLPEFVTRVEGILQQHGLADEHIVLRVTGCPNGCGRALLAEVGLVGKAVGRYNLHLGGNREGTRIPRMYRENITADEILLITDQLVGRWAKERHVDEGFGDFVIRAGVIAPVIDSARDFYDVQEAM”, which “soluble on expression in E. coli” value is on record?
A: The value was “not soluble”.

Q: With “MYAVTFDLDTNCLNENAVNLSKVYSDIRKFMEQHGFKWQQGSVYFGDETINAVTCVATVQILAKQIPSFAVCVKDVRMLKIEENNDLMPAIKIVL” as the sequence, how does the “soluble on expression in E. coli” value read?
A: Its value is “not soluble”.

Q: Which “soluble on expression in E. coli” value does the source give for “MAKNFAEQIVESLENQGVKRIYGLVGDSLNPIVDAVRTSNIEWIHVRNEETAAFAAEAESLLTGELAVCAASCGPGNTHLVQGLYDANRNGAKVLAIASHIPSRQIGSHFFQETHPEALFAECSGYCEMANSALQGEVILHHAIQSTMAGKGVSVLVLPGDVTMQDVEDDTFTGSRISNARPIMYPDPAEAADLVKAINEAKTVTLFCGAGVRYARKEVLELAEKIKAPIGHALGGKMYIQYDNPFDVGMSGLLGYGACHDASNDADLLILLGTDFPYNDFLPRKNVAQIDIDGSHIGRRTRISHPVVGDVAATISNILPHIEEKTDRSFLDRMLKKHHRKLNDVIEAYTSGVEKHTPIHPEFVANIIDEIAADDAVFTIDTGMCNVWGARYITPNGKREMIGSFRHGTMANALPQAIGASAANPRRQVVTFSGDGGLGMLMGELLTVKLHNLPIKTVVFNNSSLGMVKLEMLVQGMPEHETDHEHVDFDAIAAAVGIEHIKITDPAKARQQLQAAFDYDGPVLIDIITDPNALSIPPNITMDMLMGFSRAATRTVFGGGVGHMVDMAKSNLRNIPKP” here?
A: Its value is “not soluble”.

Q: With “MGHHHHHHSHMVPSSAETGGTNYLAPGGLSDSQLLLEPGDRSHWCVVAYWEEKTRVGRLYCVQEPSLDIFYDLPQGNGFCLGQLNSDNKSQLVQKVRSKIGCGIQLTREVDGVWVYNRSSYPIFIKSATLDNPDSRTLLVHKVFPGFSIKAFDYEKAYSLQRPNDHEFMQQPWTGFTVQISFVKGWGQCYTRQFISSCPCWLEVIFNSR” as the sequence, how does the “soluble on expression in E. coli” value read?
A: Its value is “not soluble”.

Q: Which “soluble on expression in E. coli” value does the source give for “MKVYIVEHAIGSFAYDEQGKLIDFVLSSKDLGKVVDSLLDNEKGIPLPTTIELIQKIKPEEVVVENEAEIPNLQQLGVKASYEIHNLGSKIFRESLPKIAIETKFASSENDLYSFLYEVSFEYTRRKLRTAASKRDLLAIQAIRAIDDIDKTINLFSERLREWYSIHFPELNKLVEDHELYASIVSKFGHRDEITNTGLDEIGVNKDLSTKILDASKKSIGADITDVDIRSIKMLSDTILELFRIRSELTDYVESVMKEVAPNVTALVGPTLGARLLSLAGSLEDLAKMPASTIQVLGAEKALFRALRKGGKPPKHGVIFQYPAIHTSPRWQRGKIARALAAKLAIAARIDAFSGRFIGDKLNEELKKRIEEIKTKYAQPPPRKPQEQKRKEEERKGKKGGREKRKGRR” here?
A: The value was “soluble”.

Q: With “MVVFGTTFFNFDSFIGKTDSIEIIGKSVFPYCYHNILPLLNDSGRYSLGDARRPLHETAVLVEDVVHTQLINLLQQAAEVSQLRGARVITPEDLLFLMRKDKKKLRRLLKYMFIRDYKSKIVKGIDEDDLLEDKLSGSNNANKRQKIAQDFLNSIDQTGELLAMFEDDEIDEVKQERMERAERQTRIMDSAQYAEFCESRQLSFSKKASKFRDWLDCSSMEIKPNVVAMEILAYLAYETVAQLVDLALLVRQDMVTKAGDPFSHAISATFIQYHNSAESTAACGVEAHSDAIQPCHIREAIRRYSHRIGPLSPFTNAYRRNGMAFLAC” as the sequence, how does the “soluble on expression in E. coli” value read?
A: Its value is “not soluble”.

Q: With “MKFETLDFNDEKDIKNFKTDCGDLQDCFTALPCRPGSNNQLDKRLRSIEWVCKAIVFLTEDFSNCFDKLHEKNAECVQNWNPLPNEIYLEDDKMKVEKMKENACDTYFGKDDCVKKEIIERCGQEEWNTFRKVPN” as the sequence, how does the “soluble on expression in E. coli” value read?
A: Its value is “not soluble”.
